The nature of this data set: Kinetic assessment of adenosine deaminase activity (ammonia assay, Michaelis-Menten). The format is biochemical. The conditions noted are these: [E] = 8.5 nM. As for the experimental part:
Adenosine deaminase activity was determined by the measurement of ammonia released from adenosine when broken down to inosine. Ammonia was measured using a commercially available Ammonia Assay kit (Cat. No. AA0100, Sigma-Aldrich, St. Louis, Mo.). The kit contains dry reagents containing α-ketoglutaric acid and NADPH, which were reconstituted with 5 mL water prior to use in the assay. Ammonia reacts with α-ketogluaric acid (KGA) and reduced nicotinamide adenine dinucleotide phosphate (NADPH) in the presence of L-glutamate dehydrogenase (GDH).
Kinetics parameters of rHuADA2 WT and variants were compared using this assay at different adenosine concentrations at pH 7.6 and 6.5. Adenosine concentrations ranging from 20 μM to 20 mM were used. Sub-molar concentration of adenosine stock was prepared in 1N NaOH.
For the enzymatic assays at pH 7.6, adenosine was serially diluted with 100 mM sodium acetate (NaOAc), pH 4.9. A 2× reaction mixture was prepared, containing reconstituted ammonia assay reagent (containing about 4 mM α-ketoglutarate and about 300 μM NADPH), WT rHuADA2 or variants at 1 μg/mL (17 nM) and glutamate dehydrogenase (GDH, 1:50 dilution). 85 μL of adenosine was added to 85 μL 2× mixture in duplicate in a UV-transparent half-area plate. The change in absorbance (ΔA) at 340 nm over time at room temperature was monitored.
For the enzymatic assay at pH 6.5, adenosine was serially diluted with 200 mM piperazine-N,N′-bis(2-ethanesulfonic acid) (PIPES), pH 6.5. A 2× reaction mixture in 200 mM PIPES, pH 6.5 was prepared, containing 4 mM α-ketoglutarate, 300 μM NADPH, 1 μg/mL (17 nM) rHuADA2 or variants and 50 U/mL GDH (Cat No. G2626, Sigma-Aldrich). The enzymatic reaction was initiated by adding equal volume of adenosine to the 2× mixture in a UV-transparent half-area plate as described above, and the change in absorbance (AA) at 340 nm over time at room temperature was monitored.
Adenosine deaminase activity in mU/mL (μM/min equivalent) was calculated using the following formula: 1 mU/mL=−(−ΔA/min×Tv)/(Sv×ϵ×1) • where Tv=total volume (170 μL), Sv=sample volume (85 μL), ϵ=6.22×10^−3 μM^−1 cm^−1, 1=1 cm.
The activity data were fitted with non-linear regression of Michaelis-Menten equation using Graphpad Prism software to obtain Km and Vmax. Other kinetics parameters such as kcat and kcat/Km were also determined.

Residue numbers refer to the chain shown, from its start. Numbers in names are those of the source.

B1: K374D/V102-Q147del→(GGGGS)3 (protein)
chain: IDETRAHLLLKEKMMRLGGRLVLNTKEELANERLMTLKIAEMKEAMRTLIFPPSMHFFQAKHLIERSQVFNILRMMPKGAALHLHDIGIVTMDWLVRNGGGGSGGGGSGGGGSNVTEFDDSLLRNFTLVTQHPEVIYTNQNVVWSKFETIFFTISGLIHYAPVFRDYVFRSMQEFYEDNVLYMEIRARLLPVYELSGEHHDEEWSVKTYQEVAQKFVETHPEFIGIKIIYSDHRSKDVAVIAESIRMAMGLRIKFPTVVAGFDLVGHEDTGHSLHDYKEALMIPAKDGVKLPYFFHAGETDWQGTSIDRNILDALMLNTTRIGHGFALSKHPAVRTYSWDKDIPIEVCPISNQVLKLVSDLRNHPVATLMATGHPMVISSDDPAMFGAKGLSYDFYEVFMGIGGMKADLRTLKQLAMNSIKYSTLLESEKNTFMEIWKKRWDKFIADVATK
modifications: (GGGGS)3 linker replaces deleted region; human ADA2 K371D/V99-Q144del->(GGGGS)3, mature numbering
By Km is commonly meant the substrate concentration at which the rate is half of its maximum. The Vmax is the top rate of the reaction or transport when substrate is in excess. In general, kcat refers to the maximal rate divided by the concentration of active sites. For the molecule B1, for the setting “pH 7.6”, the Km is 820 µM, the Vmax was determined as 43.01 µM/min and the kcat turned out to be 84.33 s⁻¹.

B2: K374D/C108-T150del→(GGGGS)1 (protein)
chain: IDETRAHLLLKEKMMRLGGRLVLNTKEELANERLMTLKIAEMKEAMRTLIFPPSMHFFQAKHLIERSQVFNILRMMPKGAALHLHDIGIVTMDWLVRNVTYRPHGGGGSEFDDSLLRNFTLVTQHPEVIYTNQNVVWSKFETIFFTISGLIHYAPVFRDYVFRSMQEFYEDNVLYMEIRARLLPVYELSGEHHDEEWSVKTYQEVAQKFVETHPEFIGIKIIYSDHRSKDVAVIAESIRMAMGLRIKFPTVVAGFDLVGHEDTGHSLHDYKEALMIPAKDGVKLPYFFHAGETDWQGTSIDRNILDALMLNTTRIGHGFALSKHPAVRTYSWDKDIPIEVCPISNQVLKLVSDLRNHPVATLMATGHPMVISSDDPAMFGAKGLSYDFYEVFMGIGGMKADLRTLKQLAMNSIKYSTLLESEKNTFMEIWKKRWDKFIADVATK
modifications: C108-T150 replaced by GGGGS linker; human ADA2 K371D/C105-T147del->(GGGGS)1, mature numbering
With B2, for the setting “pH 7.6”, the Michaelis constant (Km) was 910 µM, the maximal velocity (Vmax) was 43.1 µM/min and the kcat was found to be 84.51 s⁻¹.

B3: K374D/V102-Q147del→(GGGGS)1 (protein)
chain: IDETRAHLLLKEKMMRLGGRLVLNTKEELANERLMTLKIAEMKEAMRTLIFPPSMHFFQAKHLIERSQVFNILRMMPKGAALHLHDIGIVTMDWLVRNGGGGSNVTEFDDSLLRNFTLVTQHPEVIYTNQNVVWSKFETIFFTISGLIHYAPVFRDYVFRSMQEFYEDNVLYMEIRARLLPVYELSGEHHDEEWSVKTYQEVAQKFVETHPEFIGIKIIYSDHRSKDVAVIAESIRMAMGLRIKFPTVVAGFDLVGHEDTGHSLHDYKEALMIPAKDGVKLPYFFHAGETDWQGTSIDRNILDALMLNTTRIGHGFALSKHPAVRTYSWDKDIPIEVCPISNQVLKLVSDLRNHPVATLMATGHPMVISSDDPAMFGAKGLSYDFYEVFMGIGGMKADLRTLKQLAMNSIKYSTLLESEKNTFMEIWKKRWDKFIADVATK
modifications: V102-Q147 replaced by (GGGGS)1; human ADA2 K371D/V99-Q144del->(GGGGS)1, mature numbering
Regarding B3, under “pH 7.6”, the Km stood at 890 µM, the Vmax was 43.46 µM/min and the kcat is 85.22 s⁻¹.

B4: K374D/C108-T150del→(GGGGS)2 (protein)
chain: IDETRAHLLLKEKMMRLGGRLVLNTKEELANERLMTLKIAEMKEAMRTLIFPPSMHFFQAKHLIERSQVFNILRMMPKGAALHLHDIGIVTMDWLVRNVTYRPHGGGGSGGGGSEFDDSLLRNFTLVTQHPEVIYTNQNVVWSKFETIFFTISGLIHYAPVFRDYVFRSMQEFYEDNVLYMEIRARLLPVYELSGEHHDEEWSVKTYQEVAQKFVETHPEFIGIKIIYSDHRSKDVAVIAESIRMAMGLRIKFPTVVAGFDLVGHEDTGHSLHDYKEALMIPAKDGVKLPYFFHAGETDWQGTSIDRNILDALMLNTTRIGHGFALSKHPAVRTYSWDKDIPIEVCPISNQVLKLVSDLRNHPVATLMATGHPMVISSDDPAMFGAKGLSYDFYEVFMGIGGMKADLRTLKQLAMNSIKYSTLLESEKNTFMEIWKKRWDKFIADVATK
modifications: C108-T150 replaced by (GGGGS)2; human ADA2 K371D/C105-T147del->(GGGGS)2, mature numbering
As for B4, under “pH 7.6”, the Km was 850 µM, the maximum rate (Vmax) came to 36.92 µM/min and the kcat stood at 72.39 s⁻¹.

B5: R222Q/S265N/K374D: ADA2 combination variant SEQ ID NO:269 (protein)
chain: IDETRAHLLLKEKMMRLGGRLVLNTKEELANERLMTLKIAEMKEAMRTLIFPPSMHFFQAKHLIERSQVFNILRMMPKGAALHLHDIGIVTMDWLVRNVTYRPHCHICFTPRGIMQFRFAHPTPRPSEKCSKWILLEDYRKRVQNVTEFDDSLLRNFTLVTQHPEVIYTNQNVVWSKFETIFFTISGLIHYAPVFRDYVFRSMQEFYEDNVLYMEIRAQLLPVYELSGEHHDEEWSVKTYQEVAQKFVETHPEFIGIKIIYNDHRSKDVAVIAESIRMAMGLRIKFPTVVAGFDLVGHEDTGHSLHDYKEALMIPAKDGVKLPYFFHAGETDWQGTSIDRNILDALMLNTTRIGHGFALSKHPAVRTYSWDKDIPIEVCPISNQVLKLVSDLRNHPVATLMATGHPMVISSDDPAMFGAKGLSYDFYEVFMGIGGMKADLRTLKQLAMNSIKYSTLLESEKNTFMEIWKKRWDKFIADVATK
modifications: human ADA2 R219Q/S262N/K371D, mature numbering
For B5, the Michaelis-Menten constant (Km) by setting is: (pH 6.5) 760 µM; (pH 7.6) 1190 µM. Besides, the Vmax was 50.89 µM/min (pH 6.5) and 70.96 µM/min (pH 7.6). The kcat came to 99.78 s⁻¹ (pH 6.5, kcat=Vmax/0.0085/60) and 139.14 s⁻¹ (pH 7.6, kcat=Vmax/0.0085/60).

B6: R222Q/S265N/K374D/R23E: ADA2 combination variant SEQ ID NO:272 (protein)
chain: B5 chain with R20E
modifications: human ADA2 R219Q/S262N/K371D/R20E, mature numbering
Take B6: the Km (pH 6.5) came to 810 µM and the Km (pH 7.6) stood at 1230 µM. Besides, the Vmax by setting is: (pH 6.5) 45.78 µM/min; (pH 7.6) 72.58 µM/min. The kcat (pH 6.5, kcat=Vmax/0.0085/60) worked out at 89.76 s⁻¹ and the kcat (pH 7.6, kcat=Vmax/0.0085/60) was 142.31 s⁻¹.

B7: R222Q/S265N/K374E/R23E: ADA2 combination variant SEQ ID NO:271 (protein)
chain: B5 chain with R20E, D371E
modifications: human ADA2 R219Q/S262N/K371E/R20E, mature numbering
For B7, the Michaelis-Menten constant (Km) reads like this: (pH 6.5) 770 µM; (pH 7.6) 1240 µM. Also, the Vmax by setting is: (pH 6.5) 54.82 µM/min; (pH 7.6) 90.91 µM/min. Moreover, the kcat (pH 6.5, kcat=Vmax/0.0085/60) stood at 107.49 s⁻¹ and the kcat (pH 7.6, kcat=Vmax/0.0085/60) was 178.25 s⁻¹.

B8: R222Q/S265N/R23E: ADA2 combination variant SEQ ID NO:270 (protein)
chain: B5 chain with R20E, D371K
modifications: human ADA2 R219Q/S262N/R20E, mature numbering
As to B8, the Michaelis-Menten constant (Km) reads like this: (pH 6.5) 1010 µM; (pH 7.6) 1290 µM. Also, the Vmax reads like this: (pH 6.5) 40.59 µM/min; (pH 7.6) 67.24 µM/min. Also, the kcat (pH 6.5, kcat=Vmax/0.0085/60) was 79.59 s⁻¹ and the kcat (pH 7.6, kcat=Vmax/0.0085/60) is 131.84 s⁻¹.

B9: K374D/C108-T150del→(GGGGS)3 (protein)
chain: IDETRAHLLLKEKMMRLGGRLVLNTKEELANERLMTLKIAEMKEAMRTLIFPPSMHFFQAKHLIERSQVFNILRMMPKGAALHLHDIGIVTMDWLVRNVTYRPHGGGGSGGGGSGGGGSEFDDSLLRNFTLVTQHPEVIYTNQNVVWSKFETIFFTISGLIHYAPVFRDYVFRSMQEFYEDNVLYMEIRARLLPVYELSGEHHDEEWSVKTYQEVAQKFVETHPEFIGIKIIYSDHRSKDVAVIAESIRMAMGLRIKFPTVVAGFDLVGHEDTGHSLHDYKEALMIPAKDGVKLPYFFHAGETDWQGTSIDRNILDALMLNTTRIGHGFALSKHPAVRTYSWDKDIPIEVCPISNQVLKLVSDLRNHPVATLMATGHPMVISSDDPAMFGAKGLSYDFYEVFMGIGGMKADLRTLKQLAMNSIKYSTLLESEKNTFMEIWKKRWDKFIADVATK
modifications: C108-T150 replaced by (GGGGS)3; human ADA2 K371D/C105-T147del->(GGGGS)3, mature numbering
For B9, for the setting “pH 7.6”, the Km was 770 µM, the maximum rate (Vmax) is 38.12 µM/min and the kcat came out at 74.75 s⁻¹.
